In the RNAGym collection of RNA variant scans (doi:10.7554/elife.80360):

B1: CPEB3 Ribozyme (parent)
chain: GGGGGCCACAGCAGAAGCGUUCACGUCGCGGCCCCUGUCAGAUUCUGGUGAAUCUGCGAAUUCUGCUGU

Variants of: B1
Assay: self-cleavage, relative activity (ratio to wild type); higher = more cleavage; co-transcriptional

Variant | self-cleavage
C7U G68C | 0.673
C7U G68A | 0.971
C7U C63U | 0.948
C7U C63A | 0.577
C7U C22A | 0.103
C7U C22G | 0.117
C7A C54A | 0.318
C7A C54U | 0.614
C7A U53G | 0.177
C7A G17U | 0.126
C7A G17A | 0.0679
C7A G17C | 0.14
C7G A42C | 0.198
C7G A42G | 0.306
C7A U61G | 0.378
C7A U61C | 0.232
C7U A42U | 0.899
C7U A42C | 0.901
C7U U21G | 0.34
C7U U21A | 0.967
C7G C33A | 0.147
C7G C33G | 0.146
C7U C18U | 0.702
C7U C18A | 0.165

Variant | self-cleavage
C7G U44G | 0.252
C7G U44C | 0.282
C7G U44A | 0.28
C7U G31C | 0.222
C7U G31U | 0.365
C7G G50U | 0.465
C7G G50C | 0.294
C7G G50A | 0.456
C7U C32A | 0.436
C7U C32G | 0.148
C7G G56A | 0.333
C7G G56C | 0.211
C7U C54U | 0.967
C7U C54A | 0.831
C7G A40U | 0.161
C7G A40G | 0.376
C7U U62A | 0.638
C7U U62C | 0.725
C7U A52C | 0.914
C7A C32G | 0.126
C7A C32U | 0.359
C7A G25C | 0.144
C7A G25A | 0.163
C7A G25U | 0.111

Variant | self-cleavage
C7U U53G | 0.949
C7U U53A | 0.861
C7U U49G | 0.993
C7U U49C | 0.854
C7G C57G | 0.189
C7G C57U | 0.158
C7U A60U | 0.244
C7U A60G | 0.789
C7U A15U | 0.534
C7U A15G | 0.927
C7U A15C | 0.693
C7A G65C | 0.314
C7A G65U | 0.198
C7A G65A | 0.496
C7U U44C | 0.829
C7A C66G | 0.42
C7A C66A | 0.354
C7A C66U | 0.697
C7G A52U | 0.301
C7G A52C | 0.42
C7G A60U | 0.187
C7G A60G | 0.175
C7A G31C | 0.159
C7A G31A | 0.499

Variant | self-cleavage
C7G U43A | 0.274
C7G U43G | 0.29
C7G A59G | 0.307
C7A G28A | 0.128
C7A G28U | 0.128
C7A G28C | 0.11
C7G G14U | 0.0864
C7G G14C | 0.0631
C7G C66U | 0.459
C7G C66A | 0.134
C7G C66G | 0.176
C7G G28U | 0.0797
C7U G41A | 0.748
C7U G41U | 0.692
C7A G30A | 0.826
C7A G30U | 0.9
C7A G30C | 0.661
C7U C39A | 0.686
C7U C39U | 0.803
C7U C39G | 0.911
C7A U21C | 0.266
C7A U21A | 0.576
C7A U21G | 0.077
C7A G58A | 0.338

Variant | self-cleavage
C7A G58U | 0.645
C7G G41U | 0.121
C7U G17A | 0.175
C7U G17U | 0.243
C7U G17C | 0.122
C7G C22U | 0.128
C7U U26C | 1.01
C7G C24G | 0.0776
C7G C24U | 0.107
C7U U55A | 0.914
C7U G11U | 0.715
C7G U36G | 0.147
C7G U36C | 0.0551
C7G U61A | 0.159
C7G U61C | 0.175
C7G U61G | 0.172
C7G U20A | 0.163
C7G U20G | 0
C7G U20C | 0.143
C7U U61A | 0.805
C7U U61C | 0.492
C7A C39U | 0.348
C7A C39A | 0.186
C7A G11U | 0.315

Variant | self-cleavage
C7A G11A | 0.401
C7U A16U | 0.617
C7U A16C | 0.145
C7U G48A | 0.987
C7U G48U | 0.966
C7G C45G | 0.295
C7G C45A | 0.378
C7G C45U | 0.425
C7U C24A | 0.499
C7U A10U | 0.981
C7U A10G | 0.947
C7U A10C | 0.994
C7G U55C | 0.185
C7G U55G | 0.119
C7G U55A | 0.124
C7G A8C | 0.514
C7G A8U | 0.614
C7G A8G | 0.346
C7A U43C | 0.388
C7U A51G | 0.984
C7U A51U | 0.976
C7U A51C | 0.966
C7G C54G | 0.17
C7G C54A | 0.138

Variant | self-cleavage
C7G C54U | 0.507
C7A U49G | 0.409
C7A U49A | 0.601
C7A U49C | 0.601
C7U G19C | 0.155
C7U G19U | 0.247
C7U G19A | 0.113
C7A C34U | 0.487
C7A C34G | 0.136
C7A C34A | 0.106
C7A C29U | 0.261
C7G C18U | 0.107
C7G C18G | 0.116
C7U U36G | 0.166
C7U U36A | 0.194
C7U U36C | 0.806
C7A G48A | 0.67
C7A G48U | 0.696
C7A U46G | 0.654
C7A U46C | 0.587
C7G U53A | 0.219
C7G U53C | 0.217
C7G U53G | 0.147
